Experimental data taken from patent publication US20100036095A1.

Experiments:
[1] = molecular target: human CD59 9R (human) (UniProt P13987); assay: flow cytometry on CHO cells expressing the CD59 form
[2] = molecular target: human CD59 H44A (human) (UniProt P13987); assay: as above
[3] = molecular target: human CD59 D24A (human) (UniProt P13987); assay: as above
[4] = molecular target: human CD59 F23G (human) (UniProt P13987); assay: as above
[5] = molecular target: human CD59 T52A (human) (UniProt P13987); assay: as above
Sequence of human CD59 T52A (human) (P13987 26-102, stated change not applied): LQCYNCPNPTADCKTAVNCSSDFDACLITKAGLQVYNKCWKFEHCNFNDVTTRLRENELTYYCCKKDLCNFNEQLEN

[6] = molecular target: wild type human CD59, epitope-tagged, GPI-anchored on CHO cells (human) (UniProt P13987); assay: as above
Sequence of wild type human CD59, epitope-tagged, GPI-anchored on CHO cells (human) (P13987 26-102 limits assumed): as the sequence (P13987 26-102, stated change not applied) above

[7] = molecular target: human CD59 W40A (human) (UniProt P13987); assay: as above
Sequence of human CD59 W40A (human) (P13987 26-102 W65A): as the sequence (P13987 26-102, stated change not applied) above, with W40A counted along it

[8] = molecular target: human CD59 20A23A (human) (UniProt P13987); assay: as above
Sequence of human CD59 20A23A (human) (P13987 other isoform, or with tags, fused parts or gaps): as the sequence (P13987 26-102, stated change not applied) above, with S20A, F23A counted along it

[9] = molecular target: human CD59 F42A (human) (UniProt P13987); assay: as above
Sequence of human CD59 F42A (human) (P13987 26-102 F67A): as the sequence (P13987 26-102, stated change not applied) above, with F42A counted along it

[10] = molecular target: human CD59 51A plus 20-23A (human) (UniProt P13987); assay: as above
Sequence of human CD59 51A plus 20-23A (human) (P13987 other isoform, or with tags, fused parts or gaps): as the sequence (P13987 26-102, stated change not applied) above, with S20A, S21A, D22A, F23A, T51A counted along it

[11] = molecular target: human CD59 5R (human) (UniProt P13987); assay: as above
Sequence of human CD59 5R (human) (P13987 26-102): as the sequence (P13987 26-102, stated change not applied) above

[12] = molecular target: C8/C9 (complement components C8 and C9 of normal human serum, in the assembling membrane attack complex) (human) (UniProt P07357); assay: cell-based or functional assay
Sequence of C8/C9 (complement components C8 and C9 of normal human serum, in the assembling membrane attack complex) (human) (P07357 31-584 limits assumed, chain 1 of 4): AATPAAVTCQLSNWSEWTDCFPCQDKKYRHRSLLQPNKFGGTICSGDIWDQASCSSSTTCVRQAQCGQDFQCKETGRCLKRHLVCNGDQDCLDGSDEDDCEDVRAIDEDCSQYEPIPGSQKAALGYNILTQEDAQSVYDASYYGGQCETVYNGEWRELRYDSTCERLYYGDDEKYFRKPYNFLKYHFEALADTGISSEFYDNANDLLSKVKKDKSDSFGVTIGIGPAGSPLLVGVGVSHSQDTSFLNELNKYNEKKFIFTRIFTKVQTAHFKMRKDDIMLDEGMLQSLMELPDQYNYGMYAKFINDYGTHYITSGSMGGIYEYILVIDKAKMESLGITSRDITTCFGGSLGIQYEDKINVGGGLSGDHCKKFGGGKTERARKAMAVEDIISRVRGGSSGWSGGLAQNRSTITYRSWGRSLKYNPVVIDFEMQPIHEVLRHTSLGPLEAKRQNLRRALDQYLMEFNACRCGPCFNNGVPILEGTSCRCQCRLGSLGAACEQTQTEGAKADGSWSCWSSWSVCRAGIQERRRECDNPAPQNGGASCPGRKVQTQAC
Sequence of C8/C9 (complement components C8 and C9 of normal human serum, in the assembling membrane attack complex) (human) (P07358 55-591 limits assumed, chain 2 of 4, further chain): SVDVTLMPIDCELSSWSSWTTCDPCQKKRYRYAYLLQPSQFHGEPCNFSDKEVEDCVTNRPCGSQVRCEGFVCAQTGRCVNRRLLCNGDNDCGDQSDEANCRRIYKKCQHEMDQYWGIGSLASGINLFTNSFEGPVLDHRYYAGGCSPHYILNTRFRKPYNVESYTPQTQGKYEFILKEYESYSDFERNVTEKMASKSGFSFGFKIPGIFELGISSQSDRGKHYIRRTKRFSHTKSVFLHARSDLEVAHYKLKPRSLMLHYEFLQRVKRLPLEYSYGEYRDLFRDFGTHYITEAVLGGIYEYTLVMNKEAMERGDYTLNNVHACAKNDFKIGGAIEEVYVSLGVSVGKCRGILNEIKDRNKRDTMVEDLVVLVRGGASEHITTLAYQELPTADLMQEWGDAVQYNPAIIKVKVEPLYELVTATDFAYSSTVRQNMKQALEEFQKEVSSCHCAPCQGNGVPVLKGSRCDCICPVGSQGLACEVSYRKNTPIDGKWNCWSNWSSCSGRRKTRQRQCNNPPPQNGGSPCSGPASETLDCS
Sequence of C8/C9 (complement components C8 and C9 of normal human serum, in the assembling membrane attack complex) (human) (P07360 21-202 limits assumed, chain 3 of 4, further chain): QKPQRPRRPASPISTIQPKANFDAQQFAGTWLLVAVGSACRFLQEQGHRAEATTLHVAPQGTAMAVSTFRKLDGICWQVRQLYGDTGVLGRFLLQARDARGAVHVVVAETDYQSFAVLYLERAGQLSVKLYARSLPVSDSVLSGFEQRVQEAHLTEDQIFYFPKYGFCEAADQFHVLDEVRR
Sequence of C8/C9 (complement components C8 and C9 of normal human serum, in the assembling membrane attack complex) (human) (P02748 22-559 limits assumed, chain 4 of 4, further chain): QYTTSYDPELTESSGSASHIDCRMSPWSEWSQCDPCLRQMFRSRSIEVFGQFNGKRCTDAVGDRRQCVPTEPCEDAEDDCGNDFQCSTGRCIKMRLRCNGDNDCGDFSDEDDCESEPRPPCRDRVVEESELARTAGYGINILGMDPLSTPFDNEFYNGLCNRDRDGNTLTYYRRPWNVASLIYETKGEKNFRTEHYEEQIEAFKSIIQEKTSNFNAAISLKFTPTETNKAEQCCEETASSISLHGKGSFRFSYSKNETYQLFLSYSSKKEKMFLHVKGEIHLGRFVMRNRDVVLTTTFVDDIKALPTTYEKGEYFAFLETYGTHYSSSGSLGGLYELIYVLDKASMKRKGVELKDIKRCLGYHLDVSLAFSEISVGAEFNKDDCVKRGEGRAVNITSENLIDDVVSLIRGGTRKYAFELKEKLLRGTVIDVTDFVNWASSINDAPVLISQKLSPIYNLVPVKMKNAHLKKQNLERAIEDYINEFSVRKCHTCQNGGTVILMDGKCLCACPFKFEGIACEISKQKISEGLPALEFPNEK

Sequence of human CD59 F23G (human) (P13987 26-102 F48G): as the sequence (P13987 26-102, stated change not applied) above, with F23G counted along it
Sequence of human CD59 H44A (human) (P13987 26-102 H69A): as the sequence (P13987 26-102, stated change not applied) above, with H44A counted along it
Sequence of human CD59 D24A (human) (P13987 26-102 D49A): as the sequence (P13987 26-102, stated change not applied) above, with D24A counted along it
Sequence of human CD59 9R (human) (P13987 26-102): as the sequence (P13987 26-102, stated change not applied) above

percent of relative mean fluorescence compared to wt CD59 [1] [%] | percent of relative mean fluorescence compared to wt CD59 [2] [%] | percent of relative mean fluorescence compared to wt CD59 [3] [%] | percent of relative mean fluorescence compared to wt CD59 [4] [%] | percent of relative mean fluorescence compared to wt CD59 [5] [%] | percent of relative mean fluorescence compared to wt CD59 [6] [%] | percent of relative mean fluorescence compared to wt CD59 [7] [%] | percent of relative mean fluorescence compared to wt CD59 [8] [%] | percent of relative mean fluorescence compared to wt CD59 [9] [%] | percent of relative mean fluorescence compared to wt CD59 [10] [%] | percent of relative mean fluorescence compared to wt CD59 [11] [%] | increase in inhibitory activity compared to the wt protein [12] [% increase] | inhibitory activity relative to the single mutant T29A [12] | Substance
100 | 58.7 | 5 | 99.3 | 99.3 | 100 | 1 | 35.7 | 99.8 | 18.3 | 47.9 |  |  | anti-CD59 mAb YTH53.1 (antibody)
98.4 | 85.9 | 1.9 | 98.9 | 99.2 | 100 | 0.7 | 97.7 | 99.9 | 98.1 | 8.2 |  |  | anti-CD59 mAb MEM43.5 (antibody)
 |  |  |  |  |  |  |  |  |  |  | 165 | 2 fold of T29A | human CD59 51A20A (from UniProt P13987 26-102)
 | 88.8 | 3.5 | 98.8 | 99.2 | 100 | 6.2 | 98.1 | 99.7 | 92.3 |  |  |  | anti-CD59 mAb MEM43 (antibody)
